Key:
huLTBP1 proTGFβ1 [1] = target: T1, huLTBP1 proTGFβ1 (Homo sapiens, UniProt P01137+Q14766); assay: Octet (BLI) binding, IgG captured on AHC tips, antigen at 100 nM; settings: Table 9, cycle 3, IgG1-agly; for Hu LTBP1-proTGFβ1 Kon: 1:1 fit; for Hu LTBP1-proTGFβ1 Koff: 5-minute dissociation
Method: (§1) Suitable methods for in vitro binding assays to determine the parameters of binding kinetics include Bio-layer Interferometry (BLI)-based assays such as Octet, and surface plasmon resonance (SPR)-based assays, such as Biacore systems (see, for example: biophysics.bioc.cam.ac.uk/wp-content/uploads/2011/02/Biacore_assay_handbook.pdf).
(§2) The affinity of SR-AB10, SR-AB2 and SR-AB13 was measured by Octet assay. The protocol used to measure the affinity of the antibodies to the complexes provided herein is summarized below.
(§3) • 96 well black polypropylene plates • AHC Octet tips (anti-human IgG Fc capture tips) (FortdBio) • 10× kinetics buffer (FortdBio) (diluted to 1× in PBS) • reiner Bio-One 96-Well Half Area Microplates (VWR cat #82050-044) Procedure:
(§4) Notes: The volume within each well during an Octet experiment is 100 uL.
(§5) A shake speed of 1000 rpm is used for all assay steps.
(§6) Pre-Wet Tips: • Biosensors must be pre-wet in 1× kinetics buffer (lx KB) for at least 10 minutes before starting an experiment. This can be done inside the Octet or on the bench.
(§7) Loading: • Tips are baselined in 1× KB for 1 minute before loading. • AHC tips are loaded with antibody at a concentration of 1 μg/mL (˜7 nM) for 3 minutes. A limit is set so that loading will stop when any one sensor reaches a response of 1 nanometer. • Tips are baselined in buffer for 1 minute after loading. The antibody should not dissociate from the tips during this time.
(§8) Antigen Association: • TGFβ1 in complex with various presentation molecules was associated to the immobilized antibodies at a single concentration of 100 nM in 1× KB.
(§9) Antibody Dissociation: • Dissociation in 1×KB was performed for 3 minutes.
(§10) Data Analysis using ForteBio Data analysis software 8.2: • Processing: align Y axis to last 5 seconds of baseline, perform inter-step correction with align to dissociation, and perform Savitzky-Golay filtering. • Analysis: 1:1 fitting model is utilized. Fitting is local and full. […] Results:
(§11) LTBP complex-specific antibodies from the first round of affinity maturation/optimization (SR-AB14, SR-AB16, SR-AB17, SR-AB18, SR-AB19) were selected for a second round of affinity maturation/optimization (i.e., CDR-H3 mutagenesis as described herein) and particular progeny antibodies (SR-AB20, SR-AB21, SR-AB22, SR-AB23, SR-AB24, SR-AB25, SR-AB26, SR-AB27, SR-AB28, and SR-AB29) were assessed for their ability to bind various proTGFβl constructs. Binding affinities of the optimized antibodies were measured by Octet against human LTBP1-proTGFβI, human LTBP3-proTGFb1, mouse LTBP1-proTGFβ1, mouse LTBP3-proTGFb1, and GARP-proTGFβl complexes, essentially as described in Example 6. In brief, test antibodies were immobilized to the surface of anti-human Fc capture biosensors (AHC) (ForteBio®) and binding was then tested against the various TGFβ1 complexes at a single concentration of 100 nM to assess binding affinities. The antigens were allowed to associate for 3 minutes followed by a 5-minute dissociation. Kinetics buffer (ForteBio®) was used throughout the experiment, and KD was determined using a 1:1 fitting model for each antibody antigen pair.
Binding affinities of the optimized antibodies were measured by Octet against human LTBP1-proTGFβ1, human LTBP3-proTGFβ1, mouse LTBP1-proTGFβ1, mouse LTBP3-proTGFβ1, and GARP-proTGFβ1 complexes, essentially as described in Example 6. In brief, test antibodies were immobilized to the surface of anti-human Fc capture biosensors (AHC) (ForteBio®) and binding was then tested against the various TGFβ1 complexes at a single concentration of 100 nM to assess binding affinities. The antigens were allowed to associate for 3 minutes followed by a 5-minute dissociation. Kinetics buffer (ForteBio®) was used throughout the experiment, and KD was determined using a 1:1 fitting model for each antibody antigen pair. […]

huLTBP3 proTGFβ1 = huLTBP3 proTGFβ1 (Homo sapiens, UniProt P01137+Q9NS15); assay: as above; settings: Table 9, cycle 3, IgG1-agly; for Hu LTBP3-proTGFβ1 Kon: 1:1 fit; for Hu LTBP3-proTGFβ1 Koff: 5-minute dissociation
Method: as §1, §2, §3, §4, §5, §6, §7, §8, §9, §10, §11
Binding affinities of the optimized antibodies were measured by Octet against human LTBP1-proTGFβ1, human LTBP3-proTGFβ1, mouse LTBP1-proTGFβ1, mouse LTBP3-proTGFβ1, and GARP-proTGFβ1 complexes, essentially as described in Example 6. In brief, test antibodies were immobilized to the surface of anti-human Fc capture biosensors (AHC) (ForteBio®) and binding was then tested against the various TGFβ1 complexes at a single concentration of 100 nM to assess binding affinities. The antigens were allowed to associate for 3 minutes followed by a 5-minute dissociation. Kinetics buffer (ForteBio®) was used throughout the experiment, and KD was determined using a 1:1 fitting model for each antibody antigen pair.

huLTBP1 proTGFβ1 [2] = target: T1, huLTBP1 proTGFβ1; assay: SPR (Biacore 8K) monovalent binding kinetics of Fabs, biotinylated antigen captured; set-up: biotin (complex biotinylated); settings: for ka / kd: Fab, huLTBP1 proTGFβ1, SR-AB42-HuFab average of five, SR-AB63-HuFab average of four replicate experiments
Method: A Biacore 8K system was employed to determine the monovalent binding affinity and the kinetic parameters for antigen binding of test antibodies. Association and dissociation kinetics of Fab fragments SR-AB42-HuFab, SR-AB63-HuFab and SR-AB43-HuFab to antigen complexes were measured, and resulting ka, kd and KD are provided below. Briefly, the binding kinetics were evaluated by surface plasmon resonance using Biacore 8K (GE Healthcare). Biotinylated capture antigens were immobilized to the chip (10 nM, ˜200 RU loading). A Biotin CAPture sensor chip was used to capture the biotinylated antigens. Fabs at 10, 5, 2.5, 1.25, and 0.6 nM concentrations were injected over the captured antigens. 0 nM was used as a reference. Affinities of LTBP antibodies to GARP and LRRC33 were confirmed using higher concentration of Fabs (100, 50, 25, 12.5, 6.25 nM). 0 nM was used as a reference. Multi-cycle kinetics was employed where each analyte concentration was injected in a separate cycle and the sensor chip surface was regenerated after each cycle. All the assays were carried out in freshly prepared 1×HBS-EP+buffer (10 mM HEPES, 150 mM NaCl, 3 mM EDTA, 0.05% Tween20, pH 7.4). Data were fit globally to a 1:1 binding model to obtain the kinetic parameters. The sensorgram for 0 nM analyte concentration was used as reference.
• 96 well plates—Greinerbio-one REF 650101 • Microplate Foils—GE Healthcare—CAT #28-9758-16 • Biotin CAPture Kit GE Healthcare product number 28920233 • Biacore running buffer—supplied as a 20× solution, diluted in Milli-Q water, TEKnova CAT #H8022 Method:
These experiments were performed using the Biacore 8K using the method “multi-cycle kinetics/affinity using Biotin CAPture kit.”
Data collection rate was set to 10 Hz and the Biotin CAPture step was performed for 300 seconds with a flow rate of 2 μL/minute. The Biotin CAPture reagent was used after a 1:5 dilution in 1× Biacore running buffer. Biotinylated ligands (the various complexes of TGFβ1) were utilized at a concentration of 10 nM and were immobilized to the sensor chip for 180 seconds with a flow rate of 10 μL/minute. The analytes, which are each of the Fabs, were tested at 10, 5, 2.5, 1.25, and 0.625 nM with a 0 nM control included. Analyte contact time was 120 seconds and the dissociation time was 900 seconds. The regeneration cycle utilized was 120 seconds with a flow rate of 10 μL/minute.
The evaluation method used was “multi-cycle affinity using capture” and a 1:1 binding model was used. […] Global fits were utilized for every KD determination.

T1 sequence (P01137 30-390): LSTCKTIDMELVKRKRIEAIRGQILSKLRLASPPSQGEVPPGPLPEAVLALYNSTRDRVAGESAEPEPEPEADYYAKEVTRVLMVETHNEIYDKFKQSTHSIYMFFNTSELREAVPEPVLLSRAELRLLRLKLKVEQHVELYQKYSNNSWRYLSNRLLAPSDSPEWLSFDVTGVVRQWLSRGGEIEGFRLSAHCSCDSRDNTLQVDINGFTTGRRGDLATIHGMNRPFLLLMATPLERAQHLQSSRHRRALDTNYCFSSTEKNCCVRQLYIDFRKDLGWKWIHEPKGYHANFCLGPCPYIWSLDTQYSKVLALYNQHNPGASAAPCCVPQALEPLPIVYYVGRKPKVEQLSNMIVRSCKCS
T1 sequence (Q14766 347-1721 limits assumed): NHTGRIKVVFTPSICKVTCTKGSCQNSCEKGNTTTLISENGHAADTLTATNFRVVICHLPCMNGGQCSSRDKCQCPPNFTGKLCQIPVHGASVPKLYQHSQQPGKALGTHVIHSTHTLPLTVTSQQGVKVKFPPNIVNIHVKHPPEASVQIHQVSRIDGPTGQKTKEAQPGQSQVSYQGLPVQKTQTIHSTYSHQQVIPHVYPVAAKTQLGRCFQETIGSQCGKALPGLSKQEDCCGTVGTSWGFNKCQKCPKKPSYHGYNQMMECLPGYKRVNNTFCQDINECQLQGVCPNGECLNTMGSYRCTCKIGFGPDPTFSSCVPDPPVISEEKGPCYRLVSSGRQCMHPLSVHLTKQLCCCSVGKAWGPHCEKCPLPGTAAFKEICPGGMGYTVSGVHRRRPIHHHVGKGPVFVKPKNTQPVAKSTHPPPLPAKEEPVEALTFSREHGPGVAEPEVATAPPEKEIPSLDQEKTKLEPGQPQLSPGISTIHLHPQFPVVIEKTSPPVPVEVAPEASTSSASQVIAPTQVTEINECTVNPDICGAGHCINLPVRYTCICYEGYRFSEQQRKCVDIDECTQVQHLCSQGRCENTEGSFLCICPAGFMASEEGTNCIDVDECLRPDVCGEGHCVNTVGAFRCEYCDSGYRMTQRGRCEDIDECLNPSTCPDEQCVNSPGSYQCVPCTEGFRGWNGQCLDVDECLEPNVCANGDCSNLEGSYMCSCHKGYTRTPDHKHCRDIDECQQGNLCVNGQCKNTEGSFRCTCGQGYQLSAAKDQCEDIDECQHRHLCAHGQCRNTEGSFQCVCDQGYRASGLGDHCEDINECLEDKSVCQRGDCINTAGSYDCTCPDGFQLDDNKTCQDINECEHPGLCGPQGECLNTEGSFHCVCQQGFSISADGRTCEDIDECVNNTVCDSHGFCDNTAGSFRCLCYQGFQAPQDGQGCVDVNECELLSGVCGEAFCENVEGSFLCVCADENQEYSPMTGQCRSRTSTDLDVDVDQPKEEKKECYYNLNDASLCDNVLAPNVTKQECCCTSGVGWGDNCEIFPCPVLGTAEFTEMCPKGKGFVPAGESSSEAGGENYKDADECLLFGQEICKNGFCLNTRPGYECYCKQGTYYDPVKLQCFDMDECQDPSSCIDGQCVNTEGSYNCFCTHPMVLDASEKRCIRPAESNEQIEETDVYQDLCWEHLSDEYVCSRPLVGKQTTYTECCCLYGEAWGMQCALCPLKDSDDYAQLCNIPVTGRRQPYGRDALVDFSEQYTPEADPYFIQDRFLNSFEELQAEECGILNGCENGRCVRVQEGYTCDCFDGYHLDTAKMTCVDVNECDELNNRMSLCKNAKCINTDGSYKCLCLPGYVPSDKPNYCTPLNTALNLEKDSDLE
huLTBP3 proTGFβ1, sequence (P01137 30-390): as the sequence (P01137 30-390) above
huLTBP3 proTGFβ1, sequence (Q9NS15 44-1303): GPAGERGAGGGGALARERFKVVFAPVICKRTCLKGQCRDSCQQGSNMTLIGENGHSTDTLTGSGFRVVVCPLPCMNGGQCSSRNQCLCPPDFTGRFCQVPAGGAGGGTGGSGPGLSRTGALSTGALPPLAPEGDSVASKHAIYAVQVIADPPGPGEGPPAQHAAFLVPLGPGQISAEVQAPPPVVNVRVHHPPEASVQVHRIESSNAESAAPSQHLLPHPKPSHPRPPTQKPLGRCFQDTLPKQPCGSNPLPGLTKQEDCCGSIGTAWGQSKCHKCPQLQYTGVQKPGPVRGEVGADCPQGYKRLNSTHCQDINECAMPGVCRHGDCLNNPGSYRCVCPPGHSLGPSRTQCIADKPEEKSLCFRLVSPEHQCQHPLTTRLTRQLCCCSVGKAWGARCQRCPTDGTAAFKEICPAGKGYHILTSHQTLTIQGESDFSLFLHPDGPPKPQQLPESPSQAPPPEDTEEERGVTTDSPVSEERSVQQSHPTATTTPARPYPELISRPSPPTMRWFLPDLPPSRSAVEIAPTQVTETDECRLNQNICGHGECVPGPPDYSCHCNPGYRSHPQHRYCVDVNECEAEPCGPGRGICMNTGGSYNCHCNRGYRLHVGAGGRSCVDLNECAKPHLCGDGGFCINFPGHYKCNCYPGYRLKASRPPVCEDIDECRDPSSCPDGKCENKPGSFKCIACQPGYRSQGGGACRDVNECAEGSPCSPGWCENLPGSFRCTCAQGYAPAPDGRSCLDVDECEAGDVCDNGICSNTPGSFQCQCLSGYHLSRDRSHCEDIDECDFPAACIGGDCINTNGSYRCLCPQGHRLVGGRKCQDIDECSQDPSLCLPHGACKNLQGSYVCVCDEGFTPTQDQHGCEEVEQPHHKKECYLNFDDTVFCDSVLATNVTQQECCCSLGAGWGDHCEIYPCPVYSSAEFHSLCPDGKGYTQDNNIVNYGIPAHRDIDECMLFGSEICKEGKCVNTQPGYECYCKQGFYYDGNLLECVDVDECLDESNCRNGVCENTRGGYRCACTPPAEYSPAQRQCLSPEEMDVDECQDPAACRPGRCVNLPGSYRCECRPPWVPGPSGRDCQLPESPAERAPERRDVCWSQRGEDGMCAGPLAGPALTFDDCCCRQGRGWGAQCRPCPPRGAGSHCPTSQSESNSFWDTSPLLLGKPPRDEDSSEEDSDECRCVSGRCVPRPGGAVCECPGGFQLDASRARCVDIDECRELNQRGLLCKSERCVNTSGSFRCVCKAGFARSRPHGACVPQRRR

B1: SR-AB34: cycle 3 light chain-optimized antibody, lineage SR-AB22; CDRs SEQ ID NO: 130-135 (antibody, V domains shown)
VH: QVQLVESGGGVVQPGRSLRLSCAASGFTFRSYVMHWVRQAPGKGLEWVAVISHEGSLKYYADSVKGRFTISRDNSKNTLYLQMNSLRAEDTAVYYCAVPRIAARRGGFGYWGQGTLVTVSS
VL: NFMLTQPHSVSESPGKTVTISCTRSSGNIDNNYVQWYQQRPGSSPTTVIYEDNQRPSGVPDRFSGSIDSSSNSASLTISGLKTEDEADYYCQSYDYDAQGVVFGGGTKLTVL
Q: What does the source list for B1?
A: Hu LTBP1-proTGFβ1 Kon (huLTBP1 proTGFβ1 [1]): 259000 M⁻¹ s⁻¹; Hu LTBP1-proTGFβ1 Koff (huLTBP1 proTGFβ1 [1]): 6e-05 s⁻¹; Hu LTBP3-proTGFβ1 Kon (huLTBP3 proTGFβ1): 372000 M⁻¹ s⁻¹; Hu LTBP3-proTGFβ1 Koff (huLTBP3 proTGFβ1): 6.68e-05 s⁻¹

B2: SR-AB37: cycle 3 light chain-optimized antibody, lineage SR-AB22; CDRs SEQ ID NO: 136-141 (antibody, V domains shown)
VH: QVQLVESGGGVVQPGRSLRLSCAASGFTFRSYVMHWVRQAPGKGLEWVAVISHEGSLKYYADSVKGRFTISRDNSKNTLYLQMNSLRAEDTAVYYCAVPRIAARRGGFGYWGQGTLVTVSS
VL: NFMLTQPHSVSESPGKTVTISCTRSSGLIDDNYVQWYQQRPGSSPTTVIYEDNQRPSGVPDRFSGSIDSSSNSASLTISGLKTEDEADYYCQSYDSDLQRVVFGGGTKLTVL
Q: Which results are given for B2?
A: Hu LTBP1-proTGFβ1 Kon (huLTBP1 proTGFβ1 [1]): 360000 M⁻¹ s⁻¹; Hu LTBP1-proTGFβ1 Koff (huLTBP1 proTGFβ1 [1]): 0.000118 s⁻¹; Hu LTBP3-proTGFβ1 Kon (huLTBP3 proTGFβ1): 545000 M⁻¹ s⁻¹; Hu LTBP3-proTGFβ1 Koff (huLTBP3 proTGFβ1): 7.58e-05 s⁻¹

B3: SR-AB38: cycle 3 light chain-optimized antibody, lineage SR-AB22; CDRs SEQ ID NO: 142-147 (antibody, V domains shown)
VH: QVQLVESGGGVVQPGRSLRLSCAASGFTFRSYVMHWVRQAPGKGLEWVAVISHEGSLKYYADSVKGRFTISRDNSKNTLYLQMNSLRAEDTAVYYCAVPRIAARRGGFGYWGQGTLVTVSS
VL: NFMLTQPHSVSESPGKTVTISCTRSSGSIDNNYVQWYQQRPGSSPTTVIYEDFIRPSGVPDRFSGSIDSSSNSASLTISGLKTEDEADYYCQSYDDDLQGVVFGGGTKLTVL
Q: Which “Hu LTBP1-proTGFβ1 Kon” value (huLTBP1 proTGFβ1 [1]) does the source give for B3 here?
A: The value was 327000 M⁻¹ s⁻¹.

Q: What about the “Hu LTBP1-proTGFβ1 Koff” value (huLTBP1 proTGFβ1 [1]) of the same molecule?
A: Its value is 0.000117 s⁻¹.

Q: What about the “Hu LTBP3-proTGFβ1 Kon” value (huLTBP3 proTGFβ1) of the same molecule?
A: The value was 502000 M⁻¹ s⁻¹.

Q: And the “Hu LTBP3-proTGFβ1 Koff” value (huLTBP3 proTGFβ1)?
A: Its value is 7.26e-05 s⁻¹.

B4: SR-AB39: cycle 3 light chain-optimized antibody, lineage SR-AB22; CDRs SEQ ID NO: 148-153 (antibody, V domains shown)
VH: QVQLVESGGGVVQPGRSLRLSCAASGFTFRSYVMHWVRQAPGKGLEWVAVISHEGSLKYYADSVKGRFTISRDNSKNTLYLQMNSLRAEDTAVYYCAVPRIAARRGGFGYWGQGTLVTVSS
VL: NFMLTQPHSVSESPGKTVTISCTRSSGLIDDNYVQWYQQRPGSSPTTVIYEDAQRPSGVPDRFSGSIDSSSNSASLTISGLKTEDEADYYCQSYDHDEQGVVFGGGTKLTVL
Q: Which results are given for B4?
A: Hu LTBP1-proTGFβ1 Kon (huLTBP1 proTGFβ1 [1]): 292000 M⁻¹ s⁻¹; Hu LTBP1-proTGFβ1 Koff (huLTBP1 proTGFβ1 [1]): 6e-05 s⁻¹; Hu LTBP3-proTGFβ1 Kon (huLTBP3 proTGFβ1): 441000 M⁻¹ s⁻¹; Hu LTBP3-proTGFβ1 Koff (huLTBP3 proTGFβ1): 6e-05 s⁻¹

B5: SR-AB46-HuFab (antibody, V domains shown)
VH: QVQLVESGGGVVQPGRSLRLSCAASGFTFRSYVMHWVRQAPGKGLEWVAVISHEGSGKYYADSVKGRFTISRDNSKNTLYLQMNSLRAEDTAVYYCARPRIAARRGGFGSWGQGTLVTVSS
VL: NFMLTQPHSVSESPGKTVTISCTRSSGNIDYNYVQWYQQRPGSSPTTVIYEDNVRPSGVPDRFSGSIDSSSNSASLTISGLKTEDEADYYCQSYDSDNQRVVFGGGTKLTVL
Q: Which ka (huLTBP1 proTGFβ1 [2]) does the source give for B5 here?
A: The ka was 2.47e+06 M⁻¹ s⁻¹.

Q: What about the kd (huLTBP1 proTGFβ1 [2]) of the same molecule?
A: Its kd is 0.00011 s⁻¹.

B6: SR-AB47-HuFab (antibody, V domains shown)
VH: QVQLVESGGGVVQPGRSLRLSCAASGFTFRSYVMHWVRQAPGKGLEWVAVISHEGSGKYYADSVKGRFTISRDNSKNTLYLQMNSLRAEDTAVYYCARPRIAARRGGFGSWGQGTLVTVSS
VL: NFMLTQPHSVSESPGKTVTISCTRSSGNIDYNYVQWYQQRPGSSPTTVIYEDNVRPSGVPDRFSGSIDSSSNSASLTISGLKTEDEADYYCQSYDYDNQAVVFGGGTKLTVL
Q: With B6 as the molecule, how does the ka (huLTBP1 proTGFβ1 [2]) read?
A: The ka was 1.84e+06 M⁻¹ s⁻¹.

Q: And the kd (huLTBP1 proTGFβ1 [2])?
A: The kd was 0.000136 s⁻¹.

B7: LTBP-SR-AB42 HuFab (antibody, V domains shown)
VH: QVQLVESGGGVVQPGRSLRLSCAASGFTFRSYVMHWVRQAPGKGLEWVAVISHEGSLKYYADSVKGRFTISRDNSKNTLYLQMNSLRAEDTAVYYCARPRIAARRGGFGYWGQGTLVTVSS
VL: NFMLTQPHSVSESPGKTVTISCTRSSGNIDNNYVQWYQQRPGSSPTTVIYEDNQRPSGVPDRFSGSIDSSSNSASLTISGLKTEDEADYYCQSYDYDTQGVVFGGGTKLTVL
Q: B7 was tested. Which Kd (huLTBP1 proTGFβ1 [2]; Table 27, Hu LTBP1-ProTGFβ1) did it give?
A: The Kd was 0.38 nM.
